# Source: publication PMC3678298, “Catalytic preference of Salmonella typhimurium LT2 sialidase for N-acetylneuraminic acid residues over N-glycolylneuraminic acid residues^” (FEBS Open Bio, 2013)
# Tested on: Cc1cc(=O)oc2cc(O[C@@]3(C(=O)O)C[C@H](O)[C@@H](NC(=O)CO)[C@H]([C@H](O)[C@H](O)CO)O3)ccc12
# Assay: purified protein
# Settings: 80 mM sodium acetate pH 6.0, 80 mM NaCl, 0.8 mg/ml BSA, 37 °C, 10 mU/ml enzyme
# Text: 4MU fluorescence; Lineweaver-Burk on STSA (Salmonella typhimurium LT2 sialidase)
substance,measurement,value
STSA (Salmonella typhimurium LT2 sialidase) (Salmonella enterica subsp. enterica serovar Typhimurium str. LT2),Km,3.10 mM
same,kcat,40 s⁻¹
same,kcat/Km,13100 M⁻¹ s⁻¹
